From IntAct's records for PubMed 9418902

B1: Tumor necrosis factor receptor superfamily member 4 (Mus musculus), P47741 (parent)
chain: MYVWVQQPTALLLLALTLGVTARRLNCVKHTYPSGHKCCRECQPGHGMVSRCDHTRDTLCHPCETGFYNEAVNYDTCKQCTQCNHRSGSELKQNCTPTQDTVCRCRPGTQPRQDSGYKLGVDCVPCPPGHFSPGNNQACKPWTNCTLSGKQTRHPASDSLDAVCEDRSLLATLLWETQRPTFRPTTVQSTTVWPRTSELPSPPTLVTPEGPAFAVLLGLGLGLLAPLTVLLALYLLRKAWRLPNTPKPCWGNSFRTPIQEEHTDAHFTLAKI
partner: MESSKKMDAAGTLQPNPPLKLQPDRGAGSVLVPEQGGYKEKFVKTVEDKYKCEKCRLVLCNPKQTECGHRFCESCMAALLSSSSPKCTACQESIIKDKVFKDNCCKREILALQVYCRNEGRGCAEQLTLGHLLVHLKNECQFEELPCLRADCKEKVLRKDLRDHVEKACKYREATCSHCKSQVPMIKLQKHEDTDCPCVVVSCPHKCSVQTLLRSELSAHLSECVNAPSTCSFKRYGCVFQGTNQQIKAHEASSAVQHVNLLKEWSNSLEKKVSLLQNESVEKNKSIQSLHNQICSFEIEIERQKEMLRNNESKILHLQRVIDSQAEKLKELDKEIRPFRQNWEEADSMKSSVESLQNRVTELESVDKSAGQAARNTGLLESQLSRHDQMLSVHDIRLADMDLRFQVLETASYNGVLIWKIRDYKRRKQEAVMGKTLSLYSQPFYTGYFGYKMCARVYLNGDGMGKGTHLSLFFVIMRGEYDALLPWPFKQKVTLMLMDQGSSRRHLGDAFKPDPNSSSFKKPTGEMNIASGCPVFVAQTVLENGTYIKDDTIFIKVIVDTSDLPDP
B2: Tumor necrosis factor receptor superfamily member 4 (Mus musculus), P47741 (parent)
chain: B1 chain
partner: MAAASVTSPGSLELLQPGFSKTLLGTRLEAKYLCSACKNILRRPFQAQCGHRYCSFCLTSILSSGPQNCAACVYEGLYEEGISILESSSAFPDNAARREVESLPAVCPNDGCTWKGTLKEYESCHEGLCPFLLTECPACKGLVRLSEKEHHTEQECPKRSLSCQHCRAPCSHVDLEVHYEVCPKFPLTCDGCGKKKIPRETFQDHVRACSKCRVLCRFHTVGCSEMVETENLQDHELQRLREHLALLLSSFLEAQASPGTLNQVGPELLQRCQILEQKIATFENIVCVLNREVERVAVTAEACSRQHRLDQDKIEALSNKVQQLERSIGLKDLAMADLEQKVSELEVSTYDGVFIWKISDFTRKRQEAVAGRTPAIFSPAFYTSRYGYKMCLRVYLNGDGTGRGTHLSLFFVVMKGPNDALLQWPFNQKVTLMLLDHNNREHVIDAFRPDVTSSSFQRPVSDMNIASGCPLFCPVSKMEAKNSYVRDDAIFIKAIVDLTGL

Variants of: B1
Conditions: with traf3_mouse Traf3, Q60803

effect of a mutation on the interaction	Variant
disrupting interaction strength	T256A;P257A;I258A
decreasing interaction strength	H262A;T263A;D264A
disrupting interaction strength	Q259A;E260A;E261A

Variants of: B2
Conditions: with traf2_mouse Traf2, P39429

effect of a mutation on the interaction	Variant
decreasing interaction strength	H262A;T263A;D264A
disrupting interaction strength	T256A;P257A;I258A
disrupting interaction strength	Q259A;E260A;E261A
